How the values were obtained:
[1] = target: hexon of Ad5.10 (Ad5 vector, hexon HVR1 replaced with the HVR1 of Ad6 hexon), on the virion (human adenovirus type 5) (UniProt P04133); experiment: SPR; Biacore T200; about 300 to 5,000 RU of Ad virions immobilised on a CM5 chip, coagulation factors flowed over at four concentrations, 50 uL/min; 10 mM HEPES, 150 mM NaCl, 1 mM CaCl2, 0.5 mM MgCl2, 0.1% BSA, 0.05% polysorbate 20, pH 7.4; global fit to a 1:1 kinetic interaction model, double referencing
[2] = target: chimeric hexon of Ad5:H1.1 (Ad5 vector, hexon residues 112-593 from Ad1 hexon), on the virion (human adenovirus type 5 | human adenovirus type 1) (UniProt P04133); experiment: as above
[3] = target: chimeric hexon of Ad5:H6.1 (Ad5 vector, hexon residues 112-593 from Ad6 hexon), on the virion (human adenovirus type 5 | human adenovirus type 6) (UniProt P04133); experiment: as above
[4] = target: chimeric hexon of Ad5:H1.2 (Ad5 vector, hexon residues 112-593 from Ad1 hexon, HVR7 IGVTRTY), on the virion (human adenovirus type 5 | human adenovirus type 1) (UniProt P04133); experiment: as above
[5] = target: chimeric hexon of Ad5:H6.3 (Ad5 vector, hexon residues 112-593 from Ad6 hexon, HVR7 IGNTETF), on the virion (human adenovirus type 5 | human adenovirus type 6) (UniProt P04133); experiment: as above
[6] = target: chimeric hexon of Ad5:H6.4 (Ad5 vector, hexon residues 112-593 from Ad6 hexon, HVR7 IGITDAF), on the virion (human adenovirus type 5 | human adenovirus type 6) (UniProt P04133); experiment: as above
[7] = target: chimeric hexon of the Ad5 vector Ad5:H1.6 (Ad1 hexon section with HVR7 mutations, on virions) (human adenovirus 5 | human adenovirus 1) (UniProt P04133); experiment: SPR; Biacore T200; about 300 to 5,000 RU of Ad virions immobilised on a CM5 chip, coagulation factors flowed over at four concentrations, 50 uL/min; running buffer 10 mM HEPES, 150 mM NaCl, 1 mM CaCl2, 0.5 mM MgCl2, 0.1% BSA, 0.05% polysorbate 20, pH 7.4; regeneration with 3 mM EDTA; global fit to a 1:1 kinetic interaction model, double referencing
[8] = target: chimeric hexon of the Ad5 vector Ad5:H6.2 (Ad6 hexon section with HVR7 mutations, on virions) (human adenovirus 5 | human adenovirus 6) (UniProt P04133); experiment: as above
[9] = target: chimeric hexon of the Ad5 vector Ad5:H6.4 (Ad6 hexon section with HVR7 mutations, on virions) (human adenovirus 5 | human adenovirus 6) (UniProt P04133); experiment: as above
[10] = target: chimeric hexon of the Ad5 vector Ad5:H6.3 (Ad6 hexon section with HVR7 mutations, on virions) (human adenovirus 5 | human adenovirus 6) (UniProt P04133); experiment: as above

Substance | Kd [1] | Kd [2] | Kd [3] | Kd [4] | Kd [5] | Kd [6] | Kd [7] | koff [7] | kon [7] | Kd [8] | koff [8] | kon [8] | Kd [9] | koff [9] | kon [9] | Kd [10] | koff [10] | kon [10]
bovine coagulation factor X (from UniProt P00743 41-492) (natural protein) | 276 nM | 220 nM | 97 nM | 1100 nM | – | – | – | – | – | – | – | – | – | – | – | – | – | –
human coagulation factor X (from UniProt P00742 41-488) (natural protein) | 1.1 nM | 300 nM | 43 nM | 650 nM | – | – | – | – | – | – | – | – | – | – | – | – | – | –
mouse coagulation factor X (from UniProt O88947 41-481) (natural protein) | 0.58 nM | 0.82 nM | 0.31 nM | 5 nM | 1200 nM | 0.095 µM | 4.2 µM | 0.638 s⁻¹ | 152000 M⁻¹ s⁻¹ | 681 nM | 0.121 s⁻¹ | 178000 M⁻¹ s⁻¹ | 0.095 µM | 0.0169 s⁻¹ | 178000 M⁻¹ s⁻¹ | 1200 nM | 0.26 s⁻¹ | 214000 M⁻¹ s⁻¹
mouse prothrombin (coagulation factor II) (from UniProt P19221 44-618) (natural protein) | 356 nM | 16 nM | 8.6 nM | 1300 nM | 1600 nM | 32 µM | – | 1.41 s⁻¹ | – | 560 nM | 0.012 s⁻¹ | 21300 M⁻¹ s⁻¹ | 32 µM | 0.563 s⁻¹ | 17800 M⁻¹ s⁻¹ | 1600 nM | 0.0304 s⁻¹ | 19700 M⁻¹ s⁻¹

Reference: PMC9536601
